According to the Immune Epitope Database (IEDB):

What was measured:
HLA-C*12:03 = assay: IEDB peptide-MHC binding, purified MHC/direct/fluorescence; filed as Kd, often an IC50 or EC50 that approximates it; ≥ and ≤ were set here for values at or beyond the usual limits of such assays; conditions: source organism: Homo sapiens
HLA-C*03:03 = assay: as above
HLA-A*02:01 [1] = assay: IEDB peptide-MHC binding, purified MHC/competitive/fluorescence; filed as Kd, often an IC50 or EC50 that approximates it; ≥ and ≤ were set here for values at or beyond the usual limits of such assays
HLA-A*26:01 [2] = assay: as above
HLA-B*15:01 [3] = assay: as above
HLA-A*02:01 [4] = assay: IEDB peptide-MHC binding, purified MHC/competitive/fluorescence; ≥ and ≤ were set here for values at or beyond the usual limits of such assays
HLA-A*24:02 = assay: as above
HLA-B*15:01 [5] = assay: as above
HLA-A*02:01 [6] = assay: IEDB peptide-MHC binding, purified MHC/direct/fluorescence; filed as Kd, often an IC50 or EC50 that approximates it; ≥ and ≤ were set here for values at or beyond the usual limits of such assays; conditions: source organism: Reston ebolavirus
HLA-A*03:01 [7] = assay: as above
HLA-B*18:01 [8] = assay: IEDB peptide-MHC binding, purified MHC/competitive/fluorescence; filed as Kd, often an IC50 or EC50 that approximates it; ≥ and ≤ were set here for values at or beyond the usual limits of such assays
HLA-B*27:03 = assay: as above
HLA-B*46:01 [9] = assay: as above
HLA-B*57:01 [10] = assay: as above
HLA-B*07:02 = assay: IEDB peptide-MHC binding, purified MHC/competitive/fluorescence; ≥ and ≤ were set here for values at or beyond the usual limits of such assays
HLA-C*05:01 = assay: IEDB peptide-MHC binding, purified MHC/direct/fluorescence; filed as Kd, often an IC50 or EC50 that approximates it; ≥ and ≤ were set here for values at or beyond the usual limits of such assays
HLA-A*01:01 = assay: as above
HLA-A*11:01 [11] = assay: as above
HLA-A*29:02 [12] = assay: as above; conditions: source organism: Mycobacterium tuberculosis variant bovis
HLA-A*31:01 = assay: as above
HLA-A*69:01 = assay: as above
HLA-B*08:01 = assay: as above
HLA-B*15:01 [13] = assay: as above
HLA-B*18:01 [14] = assay: as above; conditions: source organism: Mycobacterium tuberculosis variant bovis
HLA-B*27:05 = assay: as above
HLA-B*40:01 = assay: as above
HLA-B*46:01 [15] = assay: as above; conditions: source organism: Mycobacterium tuberculosis variant bovis
HLA-B*48:01 = assay: as above; conditions: source organism: Mycobacterium tuberculosis variant bovis
HLA-B*57:01 [16] = assay: as above
HLA-B*58:01 = assay: as above
HLA-B*57:01 [17] = assay: IEDB peptide-MHC binding, purified MHC/competitive/radioactivity; filed as Kd, often an IC50 or EC50 that approximates it; ≥ and ≤ were set here for values at or beyond the usual limits of such assays
HLA-A*26:01 [18] = assay: IEDB peptide-MHC binding, purified MHC/direct/fluorescence; filed as Kd, often an IC50 or EC50 that approximates it; ≥ and ≤ were set here for values at or beyond the usual limits of such assays; conditions: source organism: Escherichia coli O157:H7
HLA-B*15:17 = assay: as above; conditions: source organism: Escherichia coli O157:H7
HLA-B*44:02 = assay: as above; conditions: source organism: Escherichia coli O157:H7
HLA-A*03:01 [19] = assay: IEDB peptide-MHC binding, purified MHC/competitive/fluorescence; ≥ and ≤ were set here for values at or beyond the usual limits of such assays; conditions: source organism: Variola virus
HLA-A*11:01 [20] = assay: as above; conditions: source organism: Variola virus
HLA-A*02:03 = assay: IEDB peptide-MHC binding, purified MHC/competitive/fluorescence; filed as Kd, often an IC50 or EC50 that approximates it; ≥ and ≤ were set here for values at or beyond the usual limits of such assays; conditions: source organism: Salmonella enterica subsp. enterica serovar Typhi
HLA-A*02:11 = assay: as above; conditions: source organism: Salmonella enterica subsp. enterica serovar Typhi
HLA-A*02:12 = assay: as above; conditions: source organism: Salmonella enterica subsp. enterica serovar Typhi
HLA-A*02:19 = assay: as above; conditions: source organism: Salmonella enterica subsp. enterica serovar Typhi
HLA-A*03:01 [21] = assay: as above; conditions: source organism: Salmonella enterica subsp. enterica serovar Typhi
HLA-A*29:02 [22] = assay: as above; conditions: source organism: Salmonella enterica subsp. enterica serovar Typhi
HLA-B*39:01 = assay: as above; conditions: source organism: Salmonella enterica subsp. enterica serovar Typhi
HLA-B*51:01 = assay: as above; conditions: source organism: Salmonella enterica subsp. enterica serovar Typhi
[23] = source organism: Escherichia coli O139:H28 str. E24377A
[24] = source organism: Zaire ebolavirus
[25] = source organism: Sudan ebolavirus
[26] = source organism: Mycobacterium tuberculosis variant bovis
[27] = source organism: Escherichia coli O157:H7
[28] = source organism: Shigella flexneri
[29] = source organism: human gammaherpesvirus 4
[30] = source organism: Dengue virus 2 Jamaica/1409/1983
[31] = source organism: Salmonella enterica subsp. enterica serovar Typhi

Q: KAFQDVLYV was tested. Which Kd (HLA-C*12:03) did it give?
A: ≤ 0.001 µM

Q: What does the source list for YVVWLMFSL?
A: Kd (HLA-C*03:03; [23]): 2.19 µM; Kd (HLA-A*02:01 [1]; [23]): 0.312 µM; Kd (HLA-A*26:01 [2]; [23]): ≥ 20 µM; Kd (HLA-B*15:01 [3]; [23]): ≥ 20 µM

Q: Which IC50 (HLA-A*02:01 [4]; [24]) does the source give for FLSFASLFL here?
A: 0.0489 µM

Q: And the IC50 (HLA-A*24:02; [24])?
A: 0.276 µM

Q: What about the IC50 (HLA-B*15:01 [5]; [24]) of the same sequence?
A: 8.79 µM

Q: And the Kd (HLA-A*02:01 [6])?
A: ≤ 0.001 µM

Q: And the Kd (HLA-A*03:01 [7]; [24])?
A: ≥ 20 µM

Q: And the Kd (HLA-C*03:03; [24])?
A: 0.005 µM

Q: What about the Kd (HLA-A*26:01 [2]; [24]) of the same sequence?
A: ≥ 20 µM

Q: What about the Kd (HLA-B*18:01 [8]; [24]) of the same sequence?
A: ≥ 20 µM

Q: And the Kd (HLA-B*27:03; [24])?
A: ≥ 20 µM

Q: What about the Kd (HLA-B*46:01 [9]; [24]) of the same sequence?
A: ≥ 20 µM

Q: And the Kd (HLA-B*57:01 [10]; [24])?
A: ≥ 20 µM

Q: How did the IC50 (HLA-A*02:01 [4]; [25]) turn out when YTILNRKAI was run?
A: ≥ 226 µM

Q: And the IC50 (HLA-A*24:02; [25])?
A: 9.02 µM

Q: What about the IC50 (HLA-B*07:02; [25]) of the same sequence?
A: 20.1 µM

Q: With SLDDYNHLV as the sequence, how does the Kd (HLA-C*03:03; source organism: Homo sapiens) read?
A: ≥ 20 µM

Q: And the Kd (HLA-C*05:01; source organism: Homo sapiens)?
A: 0.278 µM

Q: What does the source list for PMQQLTQPL?
A: Kd (HLA-A*01:01; [26]): ≥ 20 µM; Kd (HLA-A*03:01 [7]; [26]): ≥ 20 µM; Kd (HLA-A*11:01 [11]; [26]): ≥ 20 µM; Kd (HLA-A*29:02 [12]): ≥ 20 µM; Kd (HLA-A*31:01; [26]): ≥ 20 µM; Kd (HLA-A*69:01; [26]): ≥ 20 µM; Kd (HLA-B*08:01; [26]): ≥ 20 µM; Kd (HLA-B*15:01 [13]; [26]): ≥ 20 µM; Kd (HLA-B*18:01 [14]): ≥ 20 µM; Kd (HLA-B*27:05; [26]): ≥ 20 µM; Kd (HLA-B*40:01; [26]): ≥ 20 µM; Kd (HLA-B*46:01 [15]): ≥ 20 µM; Kd (HLA-B*48:01): ≥ 20 µM; Kd (HLA-B*57:01 [16]; [26]): ≥ 20 µM; Kd (HLA-B*58:01; [26]): ≥ 20 µM

Q: KTKLTDWDF was tested. Which Kd (HLA-B*57:01 [17]; source organism: Dengue virus 4 Philippines/H241/1956) did it give?
A: 0.132 µM

Q: What does the source list for ITIPIGLYL?
A: Kd (HLA-A*01:01; [27]): ≥ 20 µM; Kd (HLA-A*03:01 [7]; [27]): ≥ 20 µM; Kd (HLA-A*11:01 [11]; [27]): ≥ 20 µM; Kd (HLA-A*26:01 [18]): ≥ 20 µM; Kd (HLA-A*31:01; [27]): ≥ 20 µM; Kd (HLA-A*69:01; [27]): ≥ 20 µM; Kd (HLA-B*08:01; [27]): ≥ 20 µM; Kd (HLA-B*15:01 [13]; [28]): 2.97 µM; Kd (HLA-B*15:17): 0.0018 µM; Kd (HLA-B*27:05; [27]): ≥ 20 µM; Kd (HLA-B*40:01; [27]): ≥ 20 µM; Kd (HLA-B*44:02): ≥ 20 µM; Kd (HLA-B*57:01 [16]; [27]): 0.349 µM; Kd (HLA-B*58:01; [28]): 0.0101 µM; Kd (HLA-C*03:03; source organism: Escherichia coli O157:H7 str. EDL933): 0.094 µM

Q: Which Kd (HLA-B*57:01 [17]; source organism: Dengue virus 2 Peru/IQT2913/1996) does the source give for ESSPNPTVEA here?
A: 0.323 µM

Q: Which Kd (HLA-C*03:03; [29]) does the source give for YSQGAFTPL here?
A: ≤ 0.001 µM

Q: And the Kd (HLA-C*05:01; [29])?
A: 3.08 µM

Q: LGKSYAQMW was tested. Which Kd (HLA-B*57:01 [17]; [30]) did it give?
A: 0.0927 µM

Q: How did the IC50 (HLA-A*02:01 [4]; source organism: Variola virus) turn out when RVGRVNPGT was run?
A: 11.4 µM

Q: What about the IC50 (HLA-B*07:02; source organism: Variola virus) of the same sequence?
A: 21.4 µM

Q: IPLASLTPK was tested. Which IC50 (HLA-A*03:01 [19]) did it give?
A: 66.6 µM

Q: What about the IC50 (HLA-A*11:01 [20]) of the same sequence?
A: 6.66 µM

Q: What about the IC50 (HLA-A*24:02; source organism: Variola virus) of the same sequence?
A: 22.1 µM

Q: What about the IC50 (HLA-B*07:02; source organism: Variola virus) of the same sequence?
A: 5.73 µM

Q: For PTAGILARW, which Kd (HLA-B*57:01 [17]; source organism: Dengue virus 1 Brazil/97-11/1997) is on record?
A: 0.0127 µM

Q: How did the IC50 (HLA-A*02:01 [4]; [25]) turn out when GLMHNQNAL was run?
A: 3.85 µM

Q: And the IC50 (HLA-A*24:02; [25])?
A: 36.6 µM

Q: And the IC50 (HLA-B*07:02; [25])?
A: 12.4 µM

Q: And the IC50 (HLA-B*15:01 [5]; [25])?
A: 11.5 µM

Q: Which results are given for HVTQHWPQL?
A: Kd (HLA-A*02:01 [1]; [31]): ≥ 20 µM; Kd (HLA-A*02:03): ≥ 20 µM; Kd (HLA-A*02:11): ≥ 20 µM; Kd (HLA-A*02:12): 7.05 µM; Kd (HLA-A*02:19): ≥ 20 µM; Kd (HLA-A*03:01 [21]): ≥ 20 µM; Kd (HLA-A*29:02 [22]): ≥ 20 µM; Kd (HLA-B*15:01 [3]; [31]): ≥ 20 µM; Kd (HLA-B*18:01 [8]; [31]): ≥ 20 µM; Kd (HLA-B*27:03; [31]): ≥ 20 µM; Kd (HLA-B*39:01): ≥ 20 µM; Kd (HLA-B*46:01 [9]; [31]): ≥ 20 µM; Kd (HLA-B*51:01): ≥ 20 µM; Kd (HLA-B*57:01 [10]; [31]): ≥ 20 µM

Q: AVFTEENQW was tested. Which Kd (HLA-B*57:01 [17]; source organism: Dengue virus 3 Martinique/1243/1999) did it give?
A: 0.0495 µM

Q: Which Kd (HLA-B*57:01 [17]; [30]) does the source give for GSSPILSITI here?
A: 0.114 µM

Q: Which results are given for NIKRTLAAM?
A: IC50 (HLA-A*02:01 [4]; [24]): ≥ 458 µM; IC50 (HLA-B*07:02; [24]): ≥ 128 µM
